Article PMC3826434 (Biochemistry, 2013)

Target: the molecule itself
Assay: native gel or EMSA

B1: CmlA, β-hydroxylase of the chloramphenicol biosynthetic pathway (wild type) (enzyme)
chain: MRYSLRQDIAVEPVIAGWYGWSYLLPPQTLARFVHNRFNRIVESYLDDPQVHAAAVRQRRMHGGPWIHAHEHRDAIEAWYRETAPRRERLDELFEAVRRLEEDILPRHHGECLDPVYQELPAALAGRVEVFYGRDNRTADYRFVEPLMYASEYYDESWQQVRFRPVTEDAREFALTTPMLEYGPEQLLVDVPLNSPLLDAVFRGGLTGTELDDLAARFGLDGERAARFASYFEPTPAASEAPAPASSSEEDVLEYVGHACVFARHRGTTFLVDPVLSYSGYPGGAENRFTFADLPERIDHLLITHNHQDHMLFETLLRIRHRVGRVLVPKSTNASLVDPGLGGILRRLGFTDVVEVDDLETLSCGSAEVVALPFLGEHGDLRIRSKTGWLIRFGERSVLFAADSTNISPTMYTKVAEVIGPVDTVFIGMESIGAAASWIYGPLYGEPLDRRTDQSRRLNGSNFPQAREIVDALEPDEVYVYAMGLEPWMGVVMAVDYDESHPAIVDSDLLVRHVQDKGGTAERLHLRRTLRL
stoichiometry N: 2
